B1: Nb_An-R3.68 (VHH)
VHH: QVQLQESGGGLVQPGGSLRLSCAASGGTLSYYAVGWFRQAPGKEREAVSSIRSGGGITVYADSVKGRFTISRDNKKNTVYLQMNGLKPEDTAVYYCAAGLWRWPDHNMLVSGNYDYWGQGTQVTVSS
notes: From the alpaca sVSG-immune library, cloned in pMES; source: E. coli WK6, purified (Ni-NTA, Superdex 75 gel filtration)
B2: Nb_An33mut2 (VHH)
VHH: DVQLVESGGGSVQAGGSLRLSCAVSGSTYSPCTTGWYRQAPGKEREWVSSISSPGTIYYQDSVKGRFTISRDNAKNTVYLQMNSLQREDTGMYYCQIQCGFVNINEYWGQGTQVTVSS
notes: Conjugated with Alexa Fluor 488 for flow cytometry; source: E. coli WK6, purified (Ni-NTA, Superdex 75 gel filtration)
B3: Nb_An33mut1 (VHH)
VHH: B2 VHH with S27R, T28A, Y29L, F101V, V102R, N103S, N105R
notes: as for B2
B4: Nb_An33mut3 (VHH)
VHH: B2 VHH with F101N, V102D, N103C, N105L
notes: as for B2
B5: Nb_An33hum1 (VHH)
VHH: B2 VHH with Y37V, F101V, V102R, N103S, N105R
B6: Nb_An33hum3 (VHH)
VHH: B2 VHH with E44G, R45L, F101V, V102R, N103S, N105R
B7: Nb_An33hum2 (VHH)
VHH: B2 VHH with Y37V, E44G, R45L, F101V, V102R, N103S, N105R
B8: Nanobody 33 (Nb_An33), wildtype (VHH)
VHH: B2 VHH with F101V, V102R, N103S, N105R
B9: Nb_An-R4.71 (VHH)
VHH: QVQLQESGGGLVQPGGSLRLSCAASGFILNYATIAWFRQAPGKEREGVSCISSAFNTNYADSVKGRFAISRDNAKNTVYLQMNSLKPEDTAVYYCAATFGGTSYCSLRPDSSVPYDTWGQGTQVTVSS
notes: as for B1
B10: Nb_An-R3.7 (VHH)
VHH: QVQLQESGGGLVQPGGSLRLSCEASGFILGYYTIGWIRQAPGKEREGVICITSAGGRTNYADSVKGRFTISRDNAKNTVYLQMNSLKPEDTAVYYCAADLINLCDSSWLRDGMNYWGKGTQVTVSS
notes: as for B1
B11: Nb_An-R4.55 (VHH)
VHH: B10 VHH with R110Q
notes: as for B1
B12: Nb_An-R4.29 (VHH)
VHH: B10 VHH with I37F, I49S, T52N, A54S, G55P, R57T, S107T, L109V, Y115F
notes: as for B1
B13: Nb_An-R4.80 (VHH)
VHH: B10 VHH with I101T
notes: as for B1
B14: Nb_An-R3.92 (VHH)
VHH: B10 VHH with P14A, I37F, I49L, T52S, L109W
notes: as for B1
B15: Nb_An-R4.11 (VHH)
VHH: QVQLQESGGGLVQPGGSLRLSCEGSGFILGYYTIGWFRQAPGKEREGVSCMNSSGRTKYADSVKGRFTISRDNAKNTVYLQMNSLKPEDRAVYFCAADLINLCDSSWLRDGMNYWGKGTQVTVSS
notes: as for B1

Positions count from the first letter of the chain named. Where only a bound is given, the exact number is not on record here.

One test has as its target T1, soluble form of the Variant-specific Surface Glycoprotein (sVSG) of T. b. brucei AnTat1.1 (Trypanosoma brucei brucei AnTat1.1, UniProt P06015).
T1 construct: Variant-specific Surface Glycoprotein (VSG) of Trypanosoma brucei brucei AnTat1.1, soluble form (sVSG); Glycoprotein; amine-coupled to a CM5 chip for SPR; also called AnTat1.1 sVSG; soluble AnTat1.1 VSG
The test is described as follows: SPR; BIAcore T100; 1000-1500 RU soluble AnTat1.1 VSG amine-coupled on a CM5 chip; Nanobody 500 to 7.8 nM at 30 µl/min in HBS (10 mM Hepes pH 7.5, 150 mM NaCl, 3.5 mM EDTA, 0.005% Tween-20); 1:1 binding model with local Rmax. The following applies: both partners purified.
Take B1: the Kd (as a rule, the constant that tells how readily two partners part at equilibrium) came to 9 nM.

The target of another test is T2, Variant-specific Surface Glycoprotein (VSG) on live bloodstream form T. b. brucei AnTat1.1 (Trypanosoma brucei brucei AnTat1.1, UniProt P06015). Briefly: cell-based or functional assay.
Settings: not given
Consider B2, for which the “Trypanotoxic activity (%), 18 h incubation at 37°C with 20 µg/ml Nb” value (from here on “Trypanotoxic activity (%)”) was found to be 4%.

For the molecule B3, the “Trypanotoxic activity (%)” value was found to be 33%.

Turning to B4, the “Trypanotoxic activity (%)” value stood at 24%.

For the next test, the target named is T2, Variant-specific Surface Glycoprotein …. Briefly: cell-based or functional assay.
Settings: not given
The source holds these as a separate data set.
With B1, the “trypanotoxic activity (% relative to a non-trypanosome specific Nb), 10 and 20 µg/ml Nb, 18 h, 37°C; value at 20 µg/ml” value was more than 95%.

Another test addresses T1, soluble form of the Variant-specific …. Briefly: SPR; BIAcore T100; 1000-1500 RU soluble AnTat1.1 VSG amine-coupled on a CM5 chip; Nanobody 500 to 7.8 nM at 30 µl/min in HBS (10 mM Hepes pH 7.5, 150 mM NaCl, 3.5 mM EDTA, 0.005% Tween-20); 1:1 binding model with local Rmax. The note with it: both partners purified. The source holds these as a separate data set. On the technique in general: SPR reads the build-up and loss of mass on a sensor chip optically.
With B5, the Kd is 1100 nM; the koff – broadly, the rate constant with which the complex falls apart – amounted to 0.264 s⁻¹; the kon (commonly the second-order rate constant of association) was found to be 243000 M⁻¹ s⁻¹.

The molecule B2 came in with a Kd of 723 nM, a koff of 0.227 s⁻¹ and a kon of 314000 M⁻¹ s⁻¹.

As for B6, binding was put at a Kd of 23.5 nM, the koff came to 0.016 s⁻¹ and the kon was 702000 M⁻¹ s⁻¹.

For the molecule B7, the Kd amounted to 540 nM, the koff stood at 0.15 s⁻¹ and the kon was 291000 M⁻¹ s⁻¹.

In turn, B3 showed a Kd of 89 nM, a koff of 0.042 s⁻¹ and a kon of 467000 M⁻¹ s⁻¹.

Turning to B4, the Kd was found to be 197 nM, the koff is 0.066 s⁻¹ and the kon was 336000 M⁻¹ s⁻¹.

With B8, binding was characterised by a dissociation constant (Kd) of 28 nM, the koff came to 0.021 s⁻¹ and the kon amounted to 741000 M⁻¹ s⁻¹.

Another test concerns the target T3, Variant-specific Surface Glycoprotein (VSG) on live bloodstream form T. b. brucei AnTat1.1 (Trypanosoma brucei brucei AnTat1.1 (endogenous in the parasites)) (UniProt P06015).
T3 sequence: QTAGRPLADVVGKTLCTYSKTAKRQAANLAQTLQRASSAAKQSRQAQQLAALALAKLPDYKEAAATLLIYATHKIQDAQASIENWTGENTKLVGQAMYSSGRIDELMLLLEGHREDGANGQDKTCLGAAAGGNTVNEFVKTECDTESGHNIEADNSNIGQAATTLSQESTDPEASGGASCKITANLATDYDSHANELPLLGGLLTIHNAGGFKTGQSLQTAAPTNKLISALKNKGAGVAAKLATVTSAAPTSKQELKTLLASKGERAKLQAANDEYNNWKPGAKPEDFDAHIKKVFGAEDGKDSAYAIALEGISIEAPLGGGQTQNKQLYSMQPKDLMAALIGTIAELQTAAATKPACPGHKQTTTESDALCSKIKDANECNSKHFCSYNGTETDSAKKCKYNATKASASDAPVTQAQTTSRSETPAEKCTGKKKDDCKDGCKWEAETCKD
Assay: not given
Settings: not given
Regarding B5, the Trypanotoxic activity (%), 18 h incubation at 37°C with 20 µg/ml Nb is 0%.

In turn, B6 showed a Trypanotoxic activity (%), 18 h incubation at 37°C with 20 µg/ml Nb of 57%.

In the case of B7, the Trypanotoxic activity (%), 18 h incubation at 37°C with 20 µg/ml Nb turned out to be 0%.

B8 gave a Trypanotoxic activity (%), 18 h incubation at 37°C with 20 µg/ml Nb of 73%.

A further test concerns the target T2, Variant-specific Surface Glycoprotein …. The test is described as follows: cell-based or functional assay.
Settings: not given
This is another data set of the same source.
For the molecule B9, the “trypanotoxic activity (% relative to a non-trypanosome specific Nb), 10 µg/ml Nb, 18 h, 37°C, HMI-9/10% FBS” value was more than 80%.

Regarding B10, the “trypanotoxic activity (% relative to a non-trypanosome specific Nb), 10 µg/ml Nb, 18 h, 37°C, HMI-9/10% FBS” value was more than 80%.

With B11, the “trypanotoxic activity (% relative to a non-trypanosome specific Nb), 10 µg/ml Nb, 18 h, 37°C, HMI-9/10% FBS” value was more than 80%.

As to B12, the “trypanotoxic activity (% relative to a non-trypanosome specific Nb), 10 µg/ml Nb, 18 h, 37°C, HMI-9/10% FBS” value is more than 80%.

For B13, the “trypanotoxic activity (% relative to a non-trypanosome specific Nb), 10 µg/ml Nb, 18 h, 37°C, HMI-9/10% FBS” value is more than 80%.

With B14, the “trypanotoxic activity (% relative to a non-trypanosome specific Nb), 10 µg/ml Nb, 18 h, 37°C, HMI-9/10% FBS” value was more than 80%.

With B15, the “trypanotoxic activity (% relative to a non-trypanosome specific Nb), 10 µg/ml Nb, 18 h, 37°C, HMI-9/10% FBS” value was more than 80%.

A further test has as its target T1, soluble form of the Variant-specific …. The test is described as follows: SPR; BIAcore T100; 1000-1500 RU soluble AnTat1.1 VSG amine-coupled on a CM5 chip; Nanobody 500 to 7.8 nM at 30 µl/min in HBS (10 mM Hepes pH 7.5, 150 mM NaCl, 3.5 mM EDTA, 0.005% Tween-20); 1:1 binding model with local Rmax. The following applies: both partners purified. This is another data set of the same source.
As for B9, binding was characterised by a dissociation constant (Kd) of 7 nM.

The molecule B10 had a Kd of 5 nM.

Molecule B11 yielded a Kd of 5 nM.

Consider B12, for which the Kd came out at 5 nM.

B13 registered a Kd of 6 nM.

For B14, the Kd was determined as 11 nM.

B1: the affinity, expressed as Kd, was 12 nM.

With B15, binding was characterised by a dissociation constant (Kd) of 35 nM.
